Assay results taken from patent publication US20130108650A1 (ACCELERON PHARMA, published 2013).
Numbering of substitutions follows the chain as printed.

T1: activin A (UniProt P08476 311-426)
T1 sequence (looked up): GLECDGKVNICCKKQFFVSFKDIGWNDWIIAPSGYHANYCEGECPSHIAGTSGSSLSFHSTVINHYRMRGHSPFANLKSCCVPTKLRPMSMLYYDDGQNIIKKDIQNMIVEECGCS

T2: hActRIIB-mFc (human; mouse, UniProt Q13705 19-137)
T2 construct: not shown: murine IgG2a Fc (captured by antibody against murine IgG2a Fc)
T2 sequence: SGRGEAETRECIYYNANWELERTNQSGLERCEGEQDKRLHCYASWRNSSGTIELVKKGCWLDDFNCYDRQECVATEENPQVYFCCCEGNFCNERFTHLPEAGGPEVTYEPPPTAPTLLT

B1: hActRIIB-hFc (human ActRIIB ECD linked to human IgG1 Fc) (Fc fusion, not shown: a dimerising Fc or GST)
chain: T2 sequence
B2: Fab-17A11 (Fab, V domains shown)
VH: EVQLLESGGGLVQPGGSLRLSCAASGFTFSTYAMMWVRQAPGKGLEWVSRIYPSGGTTTYADSVKGRFTISRDNSKNTLYLQMNSLRAEDTAVYYCARGSAASSYWGQGTLVTVSS
VL: DIQMTQSPSFLSASVGDRVTITCRASQGISNYLAWYQQKPGKAPKLLIYAASTLQSGVPSRFSGSGSGTEFTLTISSLQPEDIGTYYCQQLISYPFTFGPGTKVDIK
notes: Soluble Fab from Dyax's Fab310 library; the Fab constant domains are not; also called sFab 17A11
B3: Fab-17C09 (Fab, V domains shown)
VH: EVQLLESGGGLVQPGGSLRLSCAASGFTFSQYNMTWVRQAPGKGLEWVSSIYSSGGVTPYADSVKGRFTISRDNSKNTLYLQMNSLRAEDTAVYYCARGRLLFDYWGQGTLVTVSS
VL: DIQMTQSPSSLSASVGDRVTITCRASQSISNYLNWYQQRPGKPPKLLIYAASSLQSGVPSRFSGSGSGTDFSLSISILQPEDFATYYCQQGYTAPRSFGQGTKVEIK
notes: Soluble Fab from Dyax's Fab310 library; the Fab constant domains are not; also called sFab 17C09
B4: Ab-17G05 (antibody, V domains shown)
VH: EVQLLESGGGLVQPGGSLRLSCAASGFTFSNYWMGWVRQAPGKGLEWVSYIRSSGGLTHYADSVKGRFTISRDNSKNTLYLQMNSLRAEDTATYYCAKGLYSFDYWGQGTLVTVSS
VL: DIQMTQSPSSLSASVGDRVTITCRASQGVNNFLAWYQQKPGKAPRLLIYAASTLQSGVPSRFSGSGSGTDFTLSISNLQPEDFATYYCQQSYSTPRGFGQGTKVEIK
notes: also called antibody 17G05; Ab-R17G05
B5: Fab-17G01 (Fab, V domains shown)
VH: B4 VH with W33Q, G35D, R52G, S53P, L57R, H59K, K98R
VL: DIQMTQSPSSLSASVGDRVTITCRAGQSISNFLNWYQHTPGTGPKVLIYAASSLQSGVPSRFSGSGSGTEFTLTITNLQPEDFATYYCQQSYSTPFTFGPGTKVDIK
notes: Soluble Fab from Dyax's Fab310 library; the Fab constant domains are not; also called sFab 17G01
B6: Fab-17G05 (Fab, V domains shown)
VH: B4 VH
VL: B4 VL
notes: the Fab constant domains are not; also called sFab 17G05; Fab-R17G05

Tests used:
activin A = target: T1, activin A; assay: cell-based or functional assay
[1] = target: B1; assay: SPR (BIACORE), human ActRIIB-hFc, Fab in solution, 25 C
[2] = target: B1; assay: SPR (BIACORE), human ActRIIB-hFc, Fab in solution, 37 C
[3] = target: B1; assay: SPR (BIACORE), human ActRIIB-hFc, Fab in solution, 25 C; 25 C
[4] = target: B1; assay: SPR (BIACORE) competition: biotinylated ActRIIB-Fc on streptavidin chip, sFab 40 ug/ml then GDF11 500 ng/ml; competitor GDF11
Procedure: Affinity-purified sFabs were also screened in two SPR-based competition assays at Acceleron. The first assay evaluated the effect of sFab pretreatment on binding of GDF11 to immobilized ActRIIB-Fc. […] This signal was compared with a second signal (residual GDF11 binding) resulting from GDF11 binding to immobilized ActRIIB-Fc that had first been exposed to sFab (40 μg/ml).

hActRIIB-mFc [5] = target: T2, hActRIIB-mFc; assay: SPR (BIACORE), hActRIIB-mFc captured on anti-murine IgG2a Fc chip, antibody in solution, 37 C
Procedure: FIG. […] (A) or 37° C. (B). hActRIIB-mFc was captured on a chip with covalently immobilized antibody against murine IgG2a Fc and then exposed to Ab-17G05 at concentrations ranging from 0.0195 μg/ml to 5 μg/ml.
(§1) BIACORE™-based analysis was used to characterize binding of Ab-17G05 to ActRIIB. For this analysis, Ab-17G05 was purified from COS-cell-conditioned media by one-step protein G chromatography.

[6] = target: B1; assay: cell-based or functional assay
hActRIIB-mFc [7] = target: T2, hActRIIB-mFc; assay: SPR (BIACORE), hActRIIB-mFc captured on anti-murine IgG2a Fc chip, antibody in solution, 25 C
Procedure: (§2) FIG. 2 depicts kinetic characterization of Ab-17G05 binding to hActRIIB-mFc as determined by BIACORE™-based analysis at 25° C. (A) or 37° C. (B). hActRIIB-mFc was captured on a chip with covalently immobilized antibody against murine IgG2a Fc and then exposed to Ab-17G05 at concentrations ranging from 0.0195 μg/ml to 5 μg/ml.
as §1

hActRIIB-mFc [8] = target: T2, hActRIIB-mFc; assay: SPR (BIACORE), Ab-17G05 on hActRIIB-mFc compared with Fab-17G05 on hActRIIB-hFc
Procedure: as §2, §1

[9] = target: B1; assay: SPR (BIACORE), hActRIIB-hFc captured on anti-human IgG1 Fc chip, Fab in solution, 37 C
Procedure: (§3) FIG. […] (A) or 37° C. (B). hActRIIB-hFc was captured on a chip with covalently immobilized antibody against human IgG1 Fc and then exposed to Fab-17G05 at concentrations ranging from 0.0195 μg/ml to 5 μg/ml. RU, response units.

[10] = target: B1; assay: SPR (BIACORE), hActRIIB-hFc captured on anti-human IgG1 Fc chip, Fab in solution, 37 C (values of Example 4 reprinted for comparison)
Procedure: as §3

[11] = target: B1; assay: SPR (BIACORE), hActRIIB-hFc captured on anti-human IgG1 Fc chip, Fab in solution, 25 C (values of Example 4 reprinted for comparison)
Procedure: (§4) FIG. 1 depicts kinetic characterization of Fab-17G05 binding to hActRIIB-hFc as determined by BIACORE™-based analysis at 25° C. (A) or 37° C. (B). hActRIIB-hFc was captured on a chip with covalently immobilized antibody against human IgG1 Fc and then exposed to Fab-17G05 at concentrations ranging from 0.0195 μg/ml to 5 μg/ml. RU, response units.

[12] = target: B1; assay: SPR (BIACORE), hActRIIB-hFc captured on anti-human IgG1 Fc chip, Fab in solution, 37 C; 37 C
Procedure: as §3

[13] = target: B1; assay: SPR (BIACORE), hActRIIB-hFc captured on anti-human IgG1 Fc chip, Fab in solution, 25 C (values of Example 4 reprinted for comparison); 25 C; Fab values reprinted for comparison with Ab-17G05
Procedure: as §4

[14] = target: B1; assay: SPR (BIACORE), hActRIIB-hFc captured on anti-human IgG1 Fc chip, Fab in solution, 25 C
Procedure: as §4

Binder: B1
IC50 of inhibition of activin A signaling, A204 reporter gene assay (activin A 5 ng/ml) (activin A): 0.05 µg/mL

Binder: B2
koff [1]: 0.00019 s⁻¹
kon [1]: 1.2e+06 M⁻¹ s⁻¹
Kd [2]: 9.9 nM
koff [2]: 0.014 s⁻¹
kon [2]: 1.4e+06 M⁻¹ s⁻¹
Kd [3]: 1.6 nM
residual GDF11 binding [4]: < 50 % of Emax

Binder: B3
residual GDF11 binding [4]: < 50 % of Emax

Binder: B4
Kd (hActRIIB-mFc [5]): 0.092 nM
koff (hActRIIB-mFc [5]): 0.00014 s⁻¹
kon (hActRIIB-mFc [5]): 1.5e+06 M⁻¹ s⁻¹
IC50 of neutralization, A204 cell-based reporter gene assay (activin A 5 ng/ml plus ActRIIB-Fc 50 ng/ml) [6]: ~0.04 nM
Kd (hActRIIB-mFc [7]): 0.028 nM
koff (hActRIIB-mFc [7]): 2.7e-05 s⁻¹
kon (hActRIIB-mFc [7]): 970000 M⁻¹ s⁻¹
fold improvement in off-rate and KD against Fab-17G05 (hActRIIB-mFc [8]): ≥ 20 fold

Binder: B5
Kd [1]: 3.8 nM
koff [1]: 0.0018 s⁻¹
kon [1]: 460000 M⁻¹ s⁻¹
Kd [2]: 21 nM
koff [2]: 0.012 s⁻¹
kon [2]: 580000 M⁻¹ s⁻¹
residual GDF11 binding [4]: < 50 % of Emax

Binder: B6
koff [9]: 0.0031 s⁻¹
kon [9]: 2.6e+06 M⁻¹ s⁻¹
Kd [10]: 1.9 nM
koff [10]: 0.0031 s⁻¹
kon [10]: 2.6e+06 M⁻¹ s⁻¹
Kd [11]: 0.55 nM
koff [11]: 0.00087 s⁻¹
Kd [12]: 1.9 nM
IC50 of neutralization, A204 cell-based reporter gene assay (activin A 5 ng/ml plus ActRIIB-Fc 50 ng/ml) [6]: ~2.6 nM
kon [13]: 1.6e+06 M⁻¹ s⁻¹
residual GDF11 binding [4]: < 50 % of Emax
Kd [14]: 0.55 nM
koff [14]: 0.00087 s⁻¹
kon [14]: 1.6e+06 M⁻¹ s⁻¹
